Experimental findings from paper PMC11391413 are described below.

Assay [1] deals with full-length GRB2 (human) (UniProt P62993). The assay is described as follows: NMR titration; 15N-labelled full-length GRB2 (about 200-270 uM) titrated with SOS1 PRM peptides (up to 1:12 S4, 1:36 S5 and S9, 1:24 S10), 2D 1H-15N HSQC, 25 °C, 20 mM sodium phosphate, 0.05% NaN3; global fit of residues with CSP over 0.03 ppm to an independent two-site model (values in parentheses: single-binding site model).

For assay [2], the target named is SOS1 S5 (Homo sapiens), Q07889. The assay is described as follows: NMR.

In the case of IAGPPVPPRQST [SOS1 S9 PRM (…)], in assay [1], the KD1 (NSH3 site, independent two-site model) came to 28.4 µM; the KD2 (CSH3 site, independent two-site model) turned out to be 516 µM; the KD for NSH3, single-binding site model is 35 µM.

B1: GRB2 CSH3, P62993 (protein)
chain: QQPTYVQALFDFDPQEDGELGFRRGDFIHVMDNSDPNWWKGACHGQTGMFPRNYVTPVNR
In assay [2], B1 had a Kd of 901 µM.

As for DSPPAIPPRQPT [SOS1 S5 PRM (…)], in assay [1], the KD1 (NSH3 site, independent two-site model) turned out to be 40.9 µM; the KD2 (CSH3 site, independent two-site model) came out at 901 µM; the KD for NSH3, single-binding site model came to 44.9 µM.

B2: GRB2 NSH3, P62993 (protein)
chain: MEAIAKYDFKATADDELSFKRGDILKVLNEECDQNWYKAELNGKDGFIPKNYIEMKPH
In turn, B2 yielded a Kd in assay [2] of 40.9 µM.

Regarding PKLPPKTYKREH [SOS1 S10 PRM (…)], in assay [1], the KD1 (NSH3 site, independent two-site model) is 483 µM and the KD2 (CSH3 site, independent two-site model) came to 579 µM.

The Kd is the concentration at which binding is half-saturated. A lower Kd goes with a tighter complex.
